Paper PMC5554173

B1: LprG (Rv1411c): LprG T231A (protein)
parent chain: MRTPRRHCRRIAVLAAVSIAATVVAGCSSGSKPSGGPLPDAKPLVEEATAQTKALKSAHMVLTVNGKIPGLSLKTLSGDLTTNPTAATGNVKLTLGGSDIDADFVVFDGILYATLTPNQWSDFGPAADIYDPAQVLNPDTGLANVLANFADAKAEGRDTINGQNTIRISGKVSAQAVNQIAPPFNATQPVPATVWIQETGDHQLAQAQLDRGSGNSVQMTLSKWGEKVQVTKPPVS
B2: LprG (Rv1411c): lprG A691G (T231A) (protein)
parent chain: B1 parent chain

Key:
[1] = spotting on 7H11 OADC plates; conditions: glycan lost
[2] = glycan lost

Row | Protein | other: colony formation on solid medium [1] | other: invasion and growth in macrophages [2]
1 | B1 | no change | 
2 | B2 |  | no change
